Assay results from patent US20230270825A1, “STAPLED OLEFIN CO-AGONISTS OF THE GLUCAGON AND GLP-1 RECEPTORS” (Merck Sharp & Dohme LLC, priority 2019, published 2023).
Numbered stars: 1 amine (or outer) side, 2 acyl side, 3 side chain; on linkers, the order of the positions; unused ones are H or OH. Bridge positions count the residues as written; N and C are the ends. Square brackets hold non-standard residues; d marks the D form. Side chains are listed from the residue outwards. Ends that are not written are not given here. Peptide text beside a SMILES is read from it. * marks the point of attachment. R6me = (R)-2-amino-2-methyloct-7-enoic acid, C=CCCCC[C@@](C)(N[*:1])C(=O)[*:2]; Nle(6-ylidene) = O=C([C@H](CCCC=[*:3])N[*:1])[*:2]; S7 = C[C@@](CCCCCC=[*:3])(N[*:1])C(=O)[*:2]; Gly(pent-4-enyl) = C=CCCC[C@H](N)C(=O)O; γGlu = O=C(O)[C@H](CCC(=O)[*:2])N[*:1]; Palmitoyl = CCCCCCCCCCCCCCCC(=O)*; S5 = C=CCCC[C@](C)(N)C(=O)O; Aib = CC(C)(N)C(=O)O

Experiments:
human GCGR = biological target: T1, human GCGR (Homo sapiens, UniProt P47871); assay: cAMP activity assay, cells expressing human GCGR (HitHunter cAMP XS); type: cell-based; settings: ratio of human GCGR EC50 to human GLP1R EC50
T1 construct: expressed in transfected cells; assay-ready frozen cells grown with Blasticidin and Hygromycin
T1 sequence (P47871 26-477): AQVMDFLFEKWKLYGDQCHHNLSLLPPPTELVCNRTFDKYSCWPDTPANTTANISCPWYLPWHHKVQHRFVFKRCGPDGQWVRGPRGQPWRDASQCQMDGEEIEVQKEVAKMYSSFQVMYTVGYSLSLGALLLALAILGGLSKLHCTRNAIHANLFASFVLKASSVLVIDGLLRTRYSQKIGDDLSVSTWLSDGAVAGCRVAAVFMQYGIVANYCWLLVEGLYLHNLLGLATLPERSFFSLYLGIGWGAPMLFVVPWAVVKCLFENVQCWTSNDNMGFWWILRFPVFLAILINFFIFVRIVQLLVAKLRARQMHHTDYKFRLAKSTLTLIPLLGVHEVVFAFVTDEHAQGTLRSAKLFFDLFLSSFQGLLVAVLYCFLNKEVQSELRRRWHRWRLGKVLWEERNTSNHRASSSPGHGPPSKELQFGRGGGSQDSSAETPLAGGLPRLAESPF
Procedure: (§1) Activity of the peptides at the Glucagon receptor (GCGR) and GLP-1 receptor (GLP1R) was measured in a cAMP activity assay.
(§2) Peptides were dissolved in 100% DMSO and serially diluted to generate 10 point titrations. The peptide solutions were then transferred into 384-well assay plates (150 nL/well).
(§3) Assay ready frozen cells expressing human GLP1R or human GCGR were suspended in growth media consisting of DMEM medium (GIBCO), 10% FBS (GIBCO), 1x NEAA(GIBCO), 1x P/S (GIBCO), 10ug/ml Blasticidin (GIBCO) and 200 µg/mL Hygromycin (GIBCO). Cells were then diluted in assay buffer consisting of PBS (GIBCO), 7.5% BSA (Perkin Elmer), 100 µM RO 20-1724 (Sigma), with or without 20% human serum (MP Biomedical). The cell suspensions (15 µL) were then added to the assay plates containing the peptide solutions (30,000 cells/well for human GCGR; 10.000 cells/well for human GLP1R). The cells were incubated for 1 hour at room temperature in the dark. Production of cAMP was determined using HitHunter™ cAMPXS kits (DiscoverX) following manufacturer protocol. The plates were incubated for overnight at room temperature in the dark. Luminescence was measured using an EnVision Multilabel plate reader (Perkin Elmer). Native GLP-1 and Glucagon (Bachem) are used as control peptides. EC50 values were calculated using uses a 4 parameter logistic fit based on the Levenberg-Marquardt algorithm.

human GLP1R = biological target: T2, human GLP1R (Homo sapiens, UniProt P43220); assay: cAMP activity assay, cells expressing human GLP1R (HitHunter cAMP XS); type: cell-based; settings: cAMP production, 1 hour at room temperature; assay buffer with or without 20% human serum (not stated which)
T2 construct: expressed in transfected cells; assay-ready frozen cells grown with Blasticidin and Hygromycin
T2 sequence (P43220 24-463): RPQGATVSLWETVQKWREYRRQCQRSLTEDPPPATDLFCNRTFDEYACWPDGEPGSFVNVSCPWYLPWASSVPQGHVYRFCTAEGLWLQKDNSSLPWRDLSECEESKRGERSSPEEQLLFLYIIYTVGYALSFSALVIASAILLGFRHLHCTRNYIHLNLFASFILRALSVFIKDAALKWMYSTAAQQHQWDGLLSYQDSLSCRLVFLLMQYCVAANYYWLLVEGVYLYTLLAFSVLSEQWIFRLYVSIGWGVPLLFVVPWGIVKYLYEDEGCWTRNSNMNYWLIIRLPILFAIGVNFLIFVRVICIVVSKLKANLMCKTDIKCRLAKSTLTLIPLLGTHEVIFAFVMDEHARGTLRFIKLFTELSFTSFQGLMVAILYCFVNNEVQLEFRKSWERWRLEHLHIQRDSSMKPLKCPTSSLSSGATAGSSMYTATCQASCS
Procedure: as §1, §2, §3

[1] = biological target: human Glucagon receptor (GCGR) (human, UniProt P47871); assay: cell-based or functional assay
[2] = biological target: human GLP-1 receptor (GLP1R) (human, UniProt P43220); assay: cell-based or functional assay

| Molecule | hGCGR/hGLP1R (hTone) (human GCGR) | EC50 (human GLP1R) [nM] | GCGR EC50 human (cAMP activity assay) [1] [nM] | GLP1R EC50 human (cAMP activity assay) [2] [nM] |
| --- | --- | --- | --- | --- |
| CCCCCCCCCCCCCCCC(=O)N[C@@H](CCC(=O)N[C@@H](CCC(=O)NCCCC[C@H](NC(=O)[C@H](CC(=O)O)NC(=O)[C@H](CO)NC(=O)[C@@H](NC(=O)[C@H](Cc1ccccc1)NC(=O)[C@@H](NC(=O)CNC(=O)[C@H](CCC(N)=O)NC(=O)C(C)(C)NC(=O)[C@@H](N)Cc1c[nH]cn1)[C@@H](C)O)[C@@H](C)O)C(=O)N[C@@H](CO)C(=O)N[C@@H](CCCCN)C(=O)N[C@@H](Cc1ccc(O)cc1)C(=O)N[C@@H](CC(C)C)C(=O)N[C@@H](CC(=O)O)C(=O)NC(C)(C)C(=O)N[C@@H](CCCNC(=N)N)C(=O)N[C@@H](C)C(=O)N[C@@H](C)C(=O)N[C@@H](CCC(N)=O)C(=O)N[C@@H](CC(=O)O)C(=O)N[C@@H](Cc1ccccc1)C(=O)N[C@H](C(=O)N[C@H]1CCCC=CCCC[C@@H](C(=O)N[C@H](C(=O)N[C@@H](CCCCN)C(=O)N[C@@H](CCC(N)=O)C(=O)O)[C@@H](C)O)NC(=O)[C@H](CC(C)C)NC(=O)[C@H](CC(C)C)NC(=O)[C@H](Cc2c[nH]c3ccccc23)NC1=O)C(C)C)C(=O)O)C(=O)O [compound 16] (H-H[Aib]QGTFTSDK([γGlu-γGlu-Palmitoyl])SKYLD[Aib]RAAQDFV[Nle(6-ylidene)]WLL[Nle(6-ylidene)]TKQ-OH; staple 24-28) | 2.67 |  |  |  |
| HXQGTFTSDKSKYLDERAAXDFVXWLLDT (as printed: HsQGTFTSDKSKYLDERAA*S5meDFV*S5meWLLDT-NH2; s = D-Serine (position 2); two *S5me (positions 20 and 24) cyclized to form a double bond containing ring; C-terminal amide) [peptide of SEQ ID NO: 19 (TP 558)] |  |  | 2.15 | 2.79 |
| HXQGTFTSDXSKYLDERAAXDFVXWLLDT (as printed in Table 1: HsQGTFTSDK(γEγEC16)SKYLDERAA*S5HDFV*S5HWLLDT-NH2 (Table 2 prints HSQ...); s = D-Serine (position 2); Lys 10 conjugated to C16 fatty acid via γEγE; two *S5H = (S)-2-aminohept-6-enoic acid (positions 20 and 24) cyclized to form a double bond containing ring; C-terminal amide) [peptide of SEQ ID NO: 15 (TP506)] |  |  | 0.67 | 1.5 |
| H[Aib]QGTFTSDK([γGlu-γGlu-Palmitoyl])SKYLD[Aib]RAAQDFV[Gly(pent-4-enyl)]WLL[Gly(pent-4-enyl)]TK-NH2 (staple 24-28; not fully specified (residue 30); printed as HUQGTFTSDK(γEγEC16)SKYLDURAAQDFV*S5HWLL*S5HTKγE-NH2; also: Lys 30 conjugated by a gamma-glutamic acid (KγE)) [peptide of SEQ ID NO: 16 (TP551)] |  |  | 0.48 | 0.18 |
| HXQGTFTSDXSKYLDEXAAQDFVXWLLDT (as printed: HsQGTFTSDK(γEγEC16)SKYLDE*R6meAAQDFV*S7meWLLDT-NH2; s = D-Serine (position 2); Lys 10 conjugated to C16 fatty acid via γEγE; *R6me (position 17) and *S7me (position 24) cyclized to form a double bond containing ring; C-terminal amide) [peptide of SEQ ID NO: 8 (TP398)] |  |  | 5 | 2.28 |
| H[dS]QGTFTSDKSKYLDE[R6me]AAQDFV[S7]WLLDT-NH2 (staple 17-24) [peptide of SEQ ID NO: 9 (TP398)] |  |  | 5 | 5 |
| H[Aib]QGTFTSDK([γGlu-γGlu-Palmitoyl])SKYLD[Aib]RAAQ[R6me]FVQWLM[S7]TK-NH2 (staple 21-28; not fully specified (residue 30); printed as HUQGTFTSDK(γEγEC16)SKYLDURAAQ*R6meFVQWLM*S7meTKγE-NH2; also: Lys 30 conjugated by a gamma-glutamic acid (KγE)) [peptide of SEQ ID NO: 13 (TP401)] |  |  | 5 | 0.26 |
| HXQGTFTSDXSXYLDERAXQDFVQWLLDT (as printed: HsQGTFTSDK(γEγEC16)S*R6meYLDERA*S7meQDFVQWLLDT-NH2; s = D-Serine (position 2); Lys 10 conjugated to C16 fatty acid (-CO-(CH2)14-CH3) via γ-glutamic acid-γ-glutamic acid; *R6me (position 12) and *S7me (position 19) cyclized to form a double bond containing ring; C-terminal amide) [peptide of SEQ ID NO: 7 (TP397)] |  |  | 5 | 0.77 |
| H[dS]QGTFTSDKSKYLDERAA[R6me]DFVQWL[S7]DT-NH2 (staple 20-27) [peptide of SEQ ID NO: 11 (TP 399)] |  |  | 5 | 2.74 |
| H[Aib]QGTFTSDKSKYLD[Aib]RAAQDFV[Gly(pent-4-enyl)]WLL[Gly(pent-4-enyl)]TK-NH2 (staple 24-28; not fully specified (residue 30); printed as HUQGTFTSDKSKYLDURAAQDFV*S5HWLL*S5HTKγE-NH2; also: Lys 30 conjugated by a gamma-glutamic acid (KγE)) [peptide of SEQ ID NO: 18 (TP 557)] |  |  | 4.25 | 0.13 |
| H[Aib]QGTFTSDK([γGlu-γGlu-Palmitoyl])SKYLD[Aib]RAAQDFV[S5]WLM[S5]TK-NH2 (staple 24-28; not fully specified (residue 30); printed as HUQGTFTSDK(γEγEC16)SKYLDURAAQDFV*S5meWLM*S5meTKγE-NH2; also: Lys 30 conjugated by a gamma-glutamic acid (KγE)) [peptide of SEQ ID NO: 14 (TP402)] |  |  | 4.56 | 0.13 |

Further lines, results first:

| hGCGR/hGLP1R (hTone) (human GCGR) | EC50 (human GLP1R) [nM] | GCGR EC50 human (cAMP activity assay) [1] [nM] | GLP1R EC50 human (cAMP activity assay) [2] [nM] | Molecule |
| --- | --- | --- | --- | --- |
| 35.14 | 0.13 |  |  | CCCCCCCCCCCCCCCC(=O)N[C@@H](CCC(=O)N[C@@H](CCC(=O)NCCCC[C@H](NC(=O)[C@H](CC(=O)O)NC(=O)[C@H](CO)NC(=O)[C@@H](NC(=O)[C@H](Cc1ccccc1)NC(=O)[C@@H](NC(=O)CNC(=O)[C@H](CCC(N)=O)NC(=O)C(C)(C)NC(=O)[C@@H](N)Cc1c[nH]cn1)[C@@H](C)O)[C@@H](C)O)C(=O)N[C@@H](CO)C(=O)N[C@@H](CCCCN)C(=O)N[C@@H](Cc1ccc(O)cc1)C(=O)N[C@@H](CC(C)C)C(=O)N[C@@H](CC(=O)O)C(=O)NC(C)(C)C(=O)N[C@@H](CCCNC(=N)N)C(=O)N[C@@H](C)C(=O)N[C@@H](C)C(=O)N[C@@H](CCC(N)=O)C(=O)N[C@@H](CC(=O)O)C(=O)N[C@@H](Cc1ccccc1)C(=O)N[C@H](C(=O)N[C@@]1(C)CCCC=CCCC[C@@](C)(C(=O)N[C@H](C(=O)N[C@@H](CCCCN)C(=O)N[C@@H](CCC(N)=O)C(=O)O)[C@@H](C)O)NC(=O)[C@H](CCSC)NC(=O)[C@H](CC(C)C)NC(=O)[C@H](Cc2c[nH]c3ccccc23)NC1=O)C(C)C)C(=O)O)C(=O)O [compound 14] (H-H[Aib]QGTFTSDK([γGlu-γGlu-Palmitoyl])SKYLD[Aib]RAAQDFV[S5]WLM[S5]TKQ-OH; staple 24-28) |
| 0.44 |  |  |  | CCCCCCCCCCCCCCCC(=O)N[C@@H](CCC(=O)N[C@@H](CCC(=O)NCCCC[C@H](NC(=O)[C@H](CC(=O)O)NC(=O)[C@H](CO)NC(=O)[C@@H](NC(=O)[C@H](Cc1ccccc1)NC(=O)[C@@H](NC(=O)CNC(=O)[C@H](CCC(N)=O)NC(=O)[C@@H](CO)NC(=O)[C@@H](N)Cc1c[nH]cn1)[C@@H](C)O)[C@@H](C)O)C(=O)N[C@@H](CO)C(=O)N[C@@H](CCCCN)C(=O)N[C@@H](Cc1ccc(O)cc1)C(=O)N[C@@H](CC(C)C)C(=O)N[C@@H](CC(=O)O)C(=O)N[C@@H](CCC(=O)O)C(=O)N[C@@H](CCCNC(=N)N)C(=O)N[C@@H](C)C(=O)N[C@@H](C)C(=O)N[C@H]1CCCC=CCCC[C@@H](C(=O)N[C@@H](Cc2c[nH]c3ccccc23)C(=O)N[C@@H](CC(C)C)C(=O)N[C@@H](CC(C)C)C(=O)N[C@@H](CC(=O)O)C(=O)N[C@H](C(N)=O)[C@@H](C)O)NC(=O)[C@H](C(C)C)NC(=O)[C@H](Cc2ccccc2)NC(=O)[C@H](CC(=O)O)NC1=O)C(=O)O)C(=O)O [compound 15] (H-H[dS]QGTFTSDK([γGlu-γGlu-Palmitoyl])SKYLDERAA[Nle(6-ylidene)]DFV[Nle(6-ylidene)]WLLDT-NH2; staple 20-24) |
|  |  | 3.38 | 2.38 | HXQGTFTSDKSKYLDERAAXDFVXWLLDT (as printed: HsQGTFTSDKSKYLDERAA*S5HDFV*S5HWLLDT-NH2; s = D-Serine (position 2); two *S5H (positions 20 and 24) cyclized to form a double bond containing ring; C-terminal amide) [peptide of SEQ ID NO: 17 (TP 556)] |
|  |  | 20 | 5.3 | H[dS]QGTFTSDKS[R6me]YLDERA[S7]QDFVQWLLDT-NH2 (staple 12-19) [peptide of SEQ ID NO: 6 (TP397)] |
|  |  | 8.64 | 0.45 | H[dS]QGTFTSDK([γGlu-γGlu-Palmitoyl])SKYLDERAA[R6me]DFVQWL[S7]DT-NH2 (staple 20-27) [peptide of SEQ ID NO: 10 (TP399)] |
